What was measured:
[1] = target: in vitro translated GST control [GST: P08515]
[2] = target: T1, in vitro translated GST-CPP32 precursor, P42574
T1 chain: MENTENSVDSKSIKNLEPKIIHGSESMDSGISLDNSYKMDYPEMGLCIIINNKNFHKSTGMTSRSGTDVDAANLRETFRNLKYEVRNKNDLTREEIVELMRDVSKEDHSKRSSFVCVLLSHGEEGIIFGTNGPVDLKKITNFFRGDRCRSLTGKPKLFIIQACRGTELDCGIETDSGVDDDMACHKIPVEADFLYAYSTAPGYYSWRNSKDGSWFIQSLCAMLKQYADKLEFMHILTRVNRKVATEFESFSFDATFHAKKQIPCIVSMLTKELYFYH

[3] = target: T2, tetrapeptide substrate DEVD-AMC
T2 chain: DEVD

[4] = target: T3, in vitro translated GST-Mch3α2 precursor
T3 sequence (P55210 whole entry, looked up): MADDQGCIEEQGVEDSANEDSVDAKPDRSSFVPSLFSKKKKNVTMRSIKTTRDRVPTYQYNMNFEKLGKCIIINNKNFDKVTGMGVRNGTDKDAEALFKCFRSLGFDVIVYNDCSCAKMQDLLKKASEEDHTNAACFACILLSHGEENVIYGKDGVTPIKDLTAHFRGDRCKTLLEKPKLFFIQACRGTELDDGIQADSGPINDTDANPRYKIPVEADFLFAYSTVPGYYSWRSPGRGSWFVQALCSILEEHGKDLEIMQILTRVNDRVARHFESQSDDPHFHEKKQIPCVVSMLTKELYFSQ

YVADamc = target: T4, YVADamc
T4 chain: YVAD

in vitro translated GST control [GST: P08515], sequence (P08515 whole entry): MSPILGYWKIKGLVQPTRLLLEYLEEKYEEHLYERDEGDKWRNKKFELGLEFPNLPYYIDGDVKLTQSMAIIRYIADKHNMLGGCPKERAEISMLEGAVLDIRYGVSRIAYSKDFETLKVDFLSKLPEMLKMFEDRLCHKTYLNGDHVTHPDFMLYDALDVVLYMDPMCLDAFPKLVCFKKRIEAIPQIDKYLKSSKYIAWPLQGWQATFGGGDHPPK

Row | Protein | cleavage of 35S-labelled in vitro translated protein, SDS-PAGE and autoradiography [1] | cleavage of 35S-labelled in vitro translated precursor, SDS-PAGE and autoradiography [2] | kcat/Km (DEVDamc, mM^-1s^-1) [3] | cleavage of 35S-labelled in vitro translated precursor, SDS-PAGE and autoradiography [4] | cleavage of resin-immobilized 35S-labelled precursor, soluble products on gradient SDS gel [4] | Km (YVADamc, µM) (YVADamc) | kcat/Km (YVADamc, mM^-1 s^-1) (YVADamc) | Km (DEVDamc, µM) [3]
1 | CPP32, bacterially expressed recombinant active enzyme (protein) SGISLDNSYKMDYPEMGLCIIINNKNFHKSTGMTSRSGTDVDAANLRETFRNLKYEVRNKNDLTREEIVELMRDVSKEDHSKRSSFVCVLLSHGEEGIIFGTNGPVDLKKITNFFRGDRCRSLTGKPKLFIIQACRGTELDCGIETDSGVDDDMACHKIPVEADFLYAYSTAPGYYSWRNSKDGSWFIQSLCAMLKQYADKLEFMHILTRVNRKVATEFESFSFDATFHAKKQIPCIVSMLTKELYFYH | No cleavage was observed when CPP32 was incubated with an in vitro translated GST control | CPP32 showed a very weak activity towards its precursor and generated a faint GST-prodomain band of 30 kDa size | 1600 mM⁻¹ s⁻¹ | incubation of CPP32 with the in vitro translated GST-Mch3α generated a GST-prodomain cleavage product of molecular mass 32 kDa | CPP32 was observed to efficiently cleave the GST-Mch3α precursor | > 500 µM | 67 M⁻¹ s⁻¹ | –
2 | Mch3α, bacterially expressed recombinant active enzyme (protein) AKPDRSSFVPSLFSKKKKNVTMRSIKTTRDRVPTYQYNMNFEKLGKCIIINNKNFDKVTGMGVRNGTDKDAEALFKCFRSLGFDVIVYNDCSCAKMQDLLKKASEEDHTNAACFACILLSHGEENVIYGKDGVTPIKDLTAHFRGDRCKTLLEKPKLFFIQACRGTELDDGIQADSGPINDTDANPRYKIPVEADFLFAYSTVPGYYSWRSPGRGSWFVQALCSILEEHGKDLEIMQILTRVNDRVARHFESQSDDPHFHEKKQIPCVVSMLTKELYFSQ | – | No cleavage was observed in the buffer control or the Mch3α reaction | 11 mM⁻¹ s⁻¹ | Mch3α exhibited significantly less activity than CPP32 towards the in vitro translated GST-Mch3α, a similar cleavage product was observed | – | – | – | 51 µM
